Experimental data as given in US20220411487A1 (Regeneron, published 2022).

T1: mfTMPRSS6_S751A-MMH (Macaca fascicularis, UniProt Q8IU80 77-811 (human entry))
T1 construct: also called REGN5977; Macaca fascicularis TMPRSS6 extracellular domain with a S751A mutation and a C-terminal myc-myc-hexahistidine tag
T1 chain: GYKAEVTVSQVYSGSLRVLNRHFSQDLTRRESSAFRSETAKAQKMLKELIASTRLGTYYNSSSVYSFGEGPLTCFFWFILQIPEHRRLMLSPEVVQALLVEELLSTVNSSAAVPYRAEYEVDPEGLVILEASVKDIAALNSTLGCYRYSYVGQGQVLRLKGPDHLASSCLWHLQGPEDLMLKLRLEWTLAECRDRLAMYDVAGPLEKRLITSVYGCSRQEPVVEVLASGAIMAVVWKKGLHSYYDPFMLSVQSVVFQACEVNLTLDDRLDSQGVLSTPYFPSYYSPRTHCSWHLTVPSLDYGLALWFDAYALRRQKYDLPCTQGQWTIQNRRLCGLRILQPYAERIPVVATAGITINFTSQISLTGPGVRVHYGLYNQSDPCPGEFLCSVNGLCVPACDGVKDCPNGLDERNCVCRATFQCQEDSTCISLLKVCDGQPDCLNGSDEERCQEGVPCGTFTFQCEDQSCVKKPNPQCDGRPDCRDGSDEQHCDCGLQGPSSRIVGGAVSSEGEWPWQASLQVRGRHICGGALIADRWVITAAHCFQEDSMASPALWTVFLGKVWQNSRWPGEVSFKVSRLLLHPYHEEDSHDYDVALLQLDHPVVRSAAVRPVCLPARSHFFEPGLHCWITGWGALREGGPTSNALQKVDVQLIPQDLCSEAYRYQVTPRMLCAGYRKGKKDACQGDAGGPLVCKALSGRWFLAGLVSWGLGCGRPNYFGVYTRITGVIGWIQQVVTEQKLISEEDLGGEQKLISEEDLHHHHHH

T2: full length human TMPRSS6 on HEK293 cells (HEK293/hTMPRSS6) (human, UniProt Q8IU80 10-811)
T2 sequence (looked up): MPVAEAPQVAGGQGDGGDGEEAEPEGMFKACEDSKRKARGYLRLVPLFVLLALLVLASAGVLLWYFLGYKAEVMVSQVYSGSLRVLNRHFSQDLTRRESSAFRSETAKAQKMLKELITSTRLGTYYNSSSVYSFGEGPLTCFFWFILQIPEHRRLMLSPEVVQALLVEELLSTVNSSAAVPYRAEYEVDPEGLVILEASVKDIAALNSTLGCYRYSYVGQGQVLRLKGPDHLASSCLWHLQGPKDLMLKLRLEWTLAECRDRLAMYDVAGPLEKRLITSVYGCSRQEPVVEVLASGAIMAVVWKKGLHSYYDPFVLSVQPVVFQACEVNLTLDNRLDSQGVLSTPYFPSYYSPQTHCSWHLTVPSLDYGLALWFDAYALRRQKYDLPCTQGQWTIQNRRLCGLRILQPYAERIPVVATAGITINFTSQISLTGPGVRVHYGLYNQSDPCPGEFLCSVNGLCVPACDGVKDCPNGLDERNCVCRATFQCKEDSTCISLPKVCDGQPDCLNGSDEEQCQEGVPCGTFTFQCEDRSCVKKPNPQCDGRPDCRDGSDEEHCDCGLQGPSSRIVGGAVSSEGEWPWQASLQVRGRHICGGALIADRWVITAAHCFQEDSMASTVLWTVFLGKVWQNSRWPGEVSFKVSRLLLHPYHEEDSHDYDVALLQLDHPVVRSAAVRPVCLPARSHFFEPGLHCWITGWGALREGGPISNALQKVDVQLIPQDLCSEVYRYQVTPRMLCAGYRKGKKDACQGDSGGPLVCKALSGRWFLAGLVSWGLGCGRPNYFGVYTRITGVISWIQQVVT


How the values were obtained:
[1] = biological target: T1, mfTMPRSS6_S751A-MMH; test: SPR, mAb captured via anti-hFc, 37 C
Description: (§1) The equilibrium dissociation constant (KD) for TMPRSS6 binding to different TMPRSS6 monoclonal antibodies (mAbs) was determined using a real-time surface plasmon resonance biosensor using a Biacore 4000 instrument. All binding studies were performed in 10 mM HEPES, 150 mM NaCl, 3 mM EDTA, and 0.05% v/v Surfactant Tween-20, pH 7.4 (HBS-ET) running buffer at 25° C. and 37° C. The Biacore CM5 sensor chip surface was first derivatized by amine coupling with a human Fc specific mouse mAb to capture different TMPRSS6 mAbs. […] Different concentrations (100 nM to 3.7 nM, 3-fold serial dilution) of the TMPRSS6 reagent proteins prepared in HBS-EP running buffer were injected over the TMPRSS6 mAb captured surface for 150 seconds at a flow rate of 30 μL/min and their dissociation in HBS-ET running buffer was monitored for 10 minutes. At the end of each cycle, the TMPRSS6 mAb captured surface was regenerated using a 12 second injection of 20 mM phosphoric acid.
(§2) The association rate (kₐ) and dissociation rate (kd) were determined by fitting the real-time binding sensorgrams to a 1:1 binding model with mass transport limitation using Scrubber 2.0 (BioLogic Software) curve-fitting software. Binding dissociation equilibrium constant (KD) and dissociative half-life (t½) were calculated from the kinetic rates as: […]

[2] = biological target: T3, hTMPRSS6_S762A-MMH (human, UniProt Q8IU80 77-811); test: SPR, mAb captured via anti-hFc, 37 C
T3 construct: also called REGN5330; human TMPRSS6_S762A-MMH
Description: as §1, §2

[3] = biological target: T2, full length human TMPRSS6 on HEK293 …; test: cell-based or functional assay
[4] = biological target: T2, full length human TMPRSS6 on HEK293 …; test: cell-based or functional assay; remark: listed apart in the source

Row | Binder | 100 nM Ag Bound [1] [RU] | Kd [1] [nM] | koff [1] [s⁻¹] | kon [1] [M⁻¹ s⁻¹] | t½ [1] [min] | 100 nM Ag Bound [2] [RU] | Kd [2] [nM] | koff [2] [s⁻¹] | kon [2] [M⁻¹ s⁻¹] | t½ [2] [min] | % inhibition, HEK293 bioassay, overnight pre-incubation 37 C [3] [%] | IC50, HEK293 bioassay, overnight pre-incubation 37 C [3] [nM] | % inhibition, HEK293 bioassay, 30 min pre-incubation 25 C [4] [%] | IC50, HEK293 bioassay, 30 min pre-incubation 25 C [4] [nM]
1 | REGN7969 (antibody, human IgG4 S228P, kappa, V domains shown, fully human; human IgG4 Fc with hinge S108P; also called mAb37746) VH: QVQLVESGGGVVQPGRSLRLSCAASGFTFNNYGMHWVRQAPGKGLEWVAIISYDGSNEYYSDSVKGRFTISRDNSKNTLYLQMNSLRAEDTAVYYCARDQDYGGNLFHYWGQGTLVTVSS VL: not shown | 105 | 3.27 | 0.000924 | 283000 | 12 | 110 | 4.4 | 0.000975 | 222000 | 12 | 88 | 1.2 | 87 | 1.9
2 | REGN7971 (antibody, human IgG4 S228P, kappa, V domains shown, fully human; human IgG4 Fc with hinge S108P; also called mAb37763) VH: QVQLVESGGGVVQPGRSLRLSCAASGFTFSTYGMHWVRQAPGKGLEWVAIISYDGSNDYYLDSVKGRFTISRDNSKNTLYLQMNNLRAEDTAVYYCAKDQGYGGNLFASWGQGTLVTVSS VL: not shown | 160 | 1.68 | 0.00061 | 363000 | 19 | 169 | 2.44 | 0.000637 | 261000 | 18 | 90 | 1.4 | 86 | 0.97
3 | REGN7974 (antibody, human IgG4 S228P, kappa, V domains shown, fully human; human IgG4 Fc with hinge S108P; also called mAb41422) VH: EVQLVESGGGLVQPGRSLRLSCIASGFNFGDYGMSWVRQAPGKGLEWVGFIRSKAYGGTTEYAASVKGRFTISRDDSKSIAYLQMNSLKTEDAAMYYCSRDYYDILTGYYGDYWGQGTLVTVSS VL: not shown | 183 | 16.1 | 0.00405 | 251000 | 2.9 | 206 | 21.2 | 0.00235 | 111000 | 4.9 | 86 | 2.6 | 86 | 5.1
4 | REGN7977 (antibody, V domains shown, fully human; human IgG4 Fc with hinge S108P; also called mAb41465) VH: EVQLVESGGGLVKPGGSLRVSCAASGVTFSNVWMSWVRQVPGKGLEWVGRIKSKTDGGTTDYAAPVKGRFTISKDDSKNTLFLQMNSLKTEDTAVYYCTTETGDFWSGYYPRFQHWGQGTLVTVSS VL: DIQMTQSPSSLSASVGDRVTITCRASQYISTYLNWYQQKPGKAPSLLIYAASSLQSGVPSRFSGSGSGTDFTLTISSLQPEDFASYSCQQSYSTPPYTFGQGTKLEIKR | 133 | 11.9 | 0.00247 | 207000 | 4.7 | 134 | 11 | 0.00124 | 113000 | 9 | 87 | 1.7 | 86 | 3.6
5 | REGN7999 (antibody, human IgG4 S228P, kappa, V domains shown, fully human; human IgG4 Fc with hinge S108P; also called mAb41450) VH: EVQLVESGGGLVQPGGSLRLSCAASGFTFSSYAMTWVRQAPGKGLEWVSAISGSDTSTYYADSVKGRFTISRDNSKNTLFLQMNSLRAEDTAVYYCAKHQDYDFSYYYSAMDVWGQGTTVTVSS VL: DIQMTQSPSSLSASVGDRVIITCRASQDFNSWLAWYQQKPGKAPKLLIYAASSLQSGVPSRFSGSGSGTDFTLTISSLQPEDFATYYCQQTDSFPFTFGPGTKVDIKR | 143 | 0.75 | 0.000306 | 408000 | 38 | 129 | 2.3 | 0.000354 | 154000 | 33 | 89 | 2.1 | 86 | 3
6 | REGN8023 (antibody, human IgG4 S228P, kappa, V domains shown, fully human; human IgG4 Fc with hinge S108P; also called mAb37699) VH: EVQLVESGGGLVKPGGSLRISCAASGFIFVDYAMHWVRQAPGKGLEWVSGISWNSGSIGYADSVKGRFTISRDNAKKSLYLQMSGLRPEDTALYYCVKSGFYYVRSYFDNWGQGTLVTVSS VL: DIVMTQSPLSLPVTPGEPASISCRSSQSLLDSDDGNTYLDWYLRKPGQSPQLLIYTLSYRASGVPDRFSGSGSGTDFTLKISRVEADDVGVYYCMQRIEFPLTFGGGTKVEIKR | 206 | 1 | 0.000634 | 632000 | 18 | 205 | 2.24 | 0.000935 | 418000 | 12 | 90 | 1.1 | 90 | 0.36
